Experimental data reported in US20070197431A1 (published 2007).

Assays:
human EGF receptor [1] = biological target: T1, human EGF receptor (human, UniProt P00533 25-1210); assay: GST pull-down from Sf9 lysates, receptor blot
Method: (§1) For pull-down experiments receptors were expressed in Sf9 insect cells, cleared lysates were incubated for 1.5 hours with 3 μg immobilized GST or GST-32, and beads were washed as previously described (Carraway, K. L., III, et al., Nature, 387:512-16 (1997)). MDA-MB-453 cells were treated for 5 minutes without or with 10 nM NRG1β, lysed as previously described (Sweeney, C., et al., J. Biol. Chem., 275:19803-07 (2000)), and cleared lysates were incubated with GST and GST-32 as above. Precipitated proteins were resolved by 8% SDS-PAGE, transferred to nitrocellulose and visualized by blotting with anti-phosphotyrosine (RC20, Transduction Laboratories) or anti-receptor antibodies.
(§2) To confirm the specificity of the interaction we employed a GST fusion of clone 32 in receptor pull-down experiments. A GST fusion of clone 32 was used instead of full-length Nrdp1 because we observed that GST-Nrdp1 is insoluble in bacteria. We have expressed each of the ErbB family members in Sf9 cells (Carraway, K. L., III, et al., Nature, 387:512-16 (1997)), incubated cleared lysates with immobilized GST or GST-32, and analyzed associated receptors by blotting precipitates with receptor-specific antibodies. We again observed that clone 32 is capable of physically interacting with ErbB3 and ErbB4, but not EGF receptor or ErbB2.

human ErbB2 [2] = biological target: T2, human ErbB2 (human, UniProt P04626 23-1255); assay: GST pull-down from Sf9 lysates, receptor blot
Method: as §1, §2

human EGF receptor [3] = biological target: T1, human EGF receptor; assay: co-immunoprecipitation from co-infected Sf9 cells, anti-FLAG blot
From the text: (§3) Baculovirus encoding Nrdp1 tagged at its amino terminus with FLAG epitope was created as described previously (Guy, P. M., et al., Proc. Natl. Acad. Sci USA., 91:8132-36 ((1994)). Baculoviruses encoding human EGF receptor, human ErbB2, bovine ErbB3 or human ErbB4 have been described previously (Carraway, K. L., III, et al., Nature, 387:512-16 (1997)). For co-immunoprecipitation experiments Sf9 cells were infected with receptor viruses and co-infected either wild type or Nrdp1 baculovirus. 48 hours after infection cleared NP-40 lysates were immunoprecipitated with receptor antibodies and blotted with antibodies directed to receptors or FLAG epitope as described above.

human ErbB2 [4] = biological target: T2, human ErbB2; assay: as above
From the text: as §3

Binder	binding result (human EGF receptor [1])	binding result (human ErbB2 [2])	binding result (human EGF receptor [3])	binding result (human ErbB2 [4])
GST fusion protein of clone 32 encompassing Nrdp1 residues I135 to I317 (other, Expressed in bacteria and immobilized on beads (3 ug) for the pull-downs; also called GST-32; GST fusion of clone 32; not shown: glutathione S-transferase encoded by the pGEX vector) IKHLRSVVQQQQTRIAELEKTSAEHKHQLAEQKRDIQLLKAYMRAIRSVNPNLQNLEETIEYNEILEWVNSLQPARVTRWGGMISTPDAVLQAVIKRSLVESGCPASIVNELIENAHERSWPQGLATLETRQMNRRYYENYVAKRIPGKQAVVVMACENQHMGDDMVQEPGLVMIFAHGVEEI	no binding (tested: 3 ug immobilized GST-32)	no binding (tested: 3 ug immobilized GST-32)	–	–
Nrdp1 tagged at its amino terminus with FLAG epitope (baculovirus, Sf9 insect cells) (other, Construct used for the Sf9 co-immunoprecipitations; also called FLAG-Nrdp1; neuregulin receptor degradation protein-1) DYKDDDDKMGYDVTRFQGDVDEDLICPICSGVLEEPVQAPHCEHAFCNACITQWFSQQQTCPVDRSVVTVAHLRPVPRIMRNMLSKLQIACDNAVFGCSAVVRLDNLMSHLSDCEHNPKRPVTCEQGCGLEMPKDELPNHNCIKHLRSVVQQQQTRIAELEKTSAEHKHQLAEQKRDIQLLKAYMRAIRSVNPNLQNLEETIEYNEILEWVNSLQPARVTRWGGMISTPDAVLQAVIKRSLVESGCPASIVNELIENAHERSWPQGLATLETRQMNRRYYENYVAKRIPGKQAVVVMACENQHMGDDMVQEPGLVMIFAHGVEEI	–	–	no binding	no binding
